The target in this assay is T1, HKU1 spike (2P-stabilized ectodomain with foldon) (HCoV-HKU1, isolate N5 (as in PDB 5I08), UniProt Q0ZME7, stabilised).
T1 construct: source: ExpiCHO or Freestyle 293F cells, purified
The assay is described as follows: ELISA. The following applies: both partners purified. On the technique in general: In an ELISA, binding on a coated surface is turned into a signal by an enzyme label.

Positions count from the first letter of the chain named.

B1: Antibody 3A3, full-length (mouse variable region-human IgG1 constant region chimera) (antibody, V domains shown)
VH: QVQLQQSGAELLKPGASVKLSCTASGFNIKDTYIHWLKQRPEQGLEWIGRIGPAIGNTIYAPKFQGKATITTDTSSNTAYLQLSSLTSEDTAVYYCARYYGSSYYYFDYWGQGTTLTVSS
VL: DIVMTQSAPSVPVTPGESVSISCRSSKSLLHSNGNTYLYWFLQRPGQSPQLLIYRMSNLASGVPDRFSGSGSGTAFTLRISRVEAEDVGVYYCMQYLEYPLTFGAGTKLELK
In the case of B1, the binding result is “binds”.

B2: Antibody RAY53, full-length human IgG1 (antibody, V domains shown)
VH: QVQLVQSGAVVLKPGASVKLSCKASGFNIKNTYIHWLKQAPGQRLEWIGRIGPAIGNTIYAPKFQGKATITTDTSASTAYLELSSLRSEDTAVYYCARYYGSSYYYLDYWGQGTTVTVSS
VL: B1 VL with A8P, P9L, S18P, R44K, Y54A, N58T, R79K, L111I
For the molecule B2, the binding result was “binds”.

(Values after PMC10030117 (eLife, 2023).)
